Where no end group is shown, it is not given here. [ ]: non-standard residue; d: D form. dOrn = NCCC[C@@H](N)C(=O)O
What was measured:
Assay in all cases: cell-based or functional assay
[1] = target: T1, IL-1R/IL-1RacP receptor on porcine cells and vessels (porcine (piglet), UniProt A0A5G2QSI4 18-572)
[2] = target: T2, IL-1R/IL-1RacP receptor on human cells (human, UniProt P14778 18-569; Q9NPH3 21-570)
T2 sequence (looked up) 1: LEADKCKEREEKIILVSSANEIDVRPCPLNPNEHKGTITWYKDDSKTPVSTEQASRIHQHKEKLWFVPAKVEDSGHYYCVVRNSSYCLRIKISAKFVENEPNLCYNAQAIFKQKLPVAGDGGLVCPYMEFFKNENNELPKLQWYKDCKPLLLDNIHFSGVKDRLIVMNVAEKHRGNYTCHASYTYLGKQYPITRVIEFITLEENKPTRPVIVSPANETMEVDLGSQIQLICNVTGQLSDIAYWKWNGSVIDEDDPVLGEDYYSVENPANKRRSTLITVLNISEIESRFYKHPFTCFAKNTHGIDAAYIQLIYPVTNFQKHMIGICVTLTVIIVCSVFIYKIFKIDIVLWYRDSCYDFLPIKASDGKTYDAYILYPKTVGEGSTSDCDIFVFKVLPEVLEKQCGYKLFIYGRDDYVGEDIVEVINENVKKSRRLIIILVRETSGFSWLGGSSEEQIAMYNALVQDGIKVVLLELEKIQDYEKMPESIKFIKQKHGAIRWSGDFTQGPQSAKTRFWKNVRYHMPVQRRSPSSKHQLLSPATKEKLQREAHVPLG
T2 sequence (looked up) 2: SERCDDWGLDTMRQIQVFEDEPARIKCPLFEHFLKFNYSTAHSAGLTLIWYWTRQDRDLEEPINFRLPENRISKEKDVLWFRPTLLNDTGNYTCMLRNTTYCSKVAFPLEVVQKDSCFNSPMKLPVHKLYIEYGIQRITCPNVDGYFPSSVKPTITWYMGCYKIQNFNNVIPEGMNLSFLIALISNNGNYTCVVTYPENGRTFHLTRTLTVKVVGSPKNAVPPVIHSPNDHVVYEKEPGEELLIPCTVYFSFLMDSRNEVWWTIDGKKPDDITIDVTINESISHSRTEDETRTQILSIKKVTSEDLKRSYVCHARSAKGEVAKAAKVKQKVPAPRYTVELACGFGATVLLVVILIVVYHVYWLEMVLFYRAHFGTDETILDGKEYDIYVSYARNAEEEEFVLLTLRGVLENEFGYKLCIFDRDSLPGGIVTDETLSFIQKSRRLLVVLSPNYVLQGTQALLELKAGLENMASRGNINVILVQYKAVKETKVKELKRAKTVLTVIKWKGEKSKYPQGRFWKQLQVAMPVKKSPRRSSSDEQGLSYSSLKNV

[3] = target: T2, IL-1R/IL-1RacP receptor on human cells; remark: listed apart in the source
[4] = target: T2, IL-1R/IL-1RacP receptor on human cells; remark: listed apart in the source
[5] = target: IL-1R/IL-1RacP receptor (cells or tissue whose species is not stated)
[6] = target: T1, IL-1R/IL-1RacP receptor on porcine …; remark: listed apart in the source

T1 sequence (A0A5G2QSI4 entry or part of it): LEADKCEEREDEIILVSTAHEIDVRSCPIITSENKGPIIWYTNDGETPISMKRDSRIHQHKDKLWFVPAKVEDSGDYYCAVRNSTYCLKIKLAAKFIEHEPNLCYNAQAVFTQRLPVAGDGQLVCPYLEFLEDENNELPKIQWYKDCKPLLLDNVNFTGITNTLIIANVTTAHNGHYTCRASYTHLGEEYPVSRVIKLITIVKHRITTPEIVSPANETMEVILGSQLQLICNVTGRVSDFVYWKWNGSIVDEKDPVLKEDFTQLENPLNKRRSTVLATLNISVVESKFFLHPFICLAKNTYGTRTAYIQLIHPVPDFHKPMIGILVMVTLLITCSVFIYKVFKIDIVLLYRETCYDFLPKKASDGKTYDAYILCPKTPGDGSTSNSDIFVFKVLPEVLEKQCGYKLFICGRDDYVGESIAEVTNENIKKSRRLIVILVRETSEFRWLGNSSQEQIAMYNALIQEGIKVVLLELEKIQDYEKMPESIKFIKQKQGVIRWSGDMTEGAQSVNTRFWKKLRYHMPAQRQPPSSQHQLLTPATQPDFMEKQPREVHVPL

[dR][dY][dT][dP][dD][dL][dA] [API-101.117]
Emax (%), IL-1β-induced PGE2 synthesis in endothelial cells (porcine) [1]: 100% | IC50, IL-1β-induced PGE2 synthesis in endothelial cells (porcine) [1]: 0.01 nM

[dY][dT][dV][dE][dL][dA] [API-101.11]
percent of IL-1β-induced proliferation of WI-38 human lung fibroblasts abolished [2]: 100%

[dR][dW][dT][dP][dE][dL][dA] [API-101.116]
Emax (%), IL-1β-induced proliferation in TF-1 cells (human) [3]: 75% | IC50, IL-1β-induced proliferation in TF-1 cells (human) [3]: 0.5 nM | Emax (%), IL-1β-induced PGE2 synthesis in endothelial cells (porcine) [1]: 45% | IC50, IL-1β-induced PGE2 synthesis in endothelial cells (porcine) [1]: 0.013 nM

[dOrn][dY][dT][dP][dE][dL] [API-101.126]
Emax (%), IL-1β-induced TF-1 proliferation [4]: 0%

[dOrn][dY][dT][dP][dE][dL][dA] [API-101.115]
Emax (%), IL-1β-induced proliferation in TF-1 cells (human) [3]: 100% | IC50, IL-1β-induced proliferation in TF-1 cells (human) [3]: ~0.001 nM

[dR][dY][dT][dP][dE][dV] [API-101.129]
Emax (%), IL-1β-induced TF-1 proliferation [4]: 50% | IC50, IL-1β-induced TF-1 proliferation [4]: 400 nM

[dR][dY][dT][dP][dE][dL][dA] [API-101.107]
IC50, IL-1-induced PGE2 synthesis, human WI-38 cells [2]: 0.1 pM | IC50 (FIG. 15; cell type not given) [5]: 0.0012 nM

[dR][dF][dV][dP][dE][dL][dA] [API-101.127]
Emax (%), IL-1β-induced TF-1 proliferation [4]: < 30%

[dK][dY][dT][dP][dE][dL] [API-101.133]
Emax (%), IL-1β-induced TF-1 proliferation [4]: < 10%

[dR][dY][dT][dV][dE][dL][dA] [API-101.10]
IC50, IL-1-induced PGE2 synthesis, WI-38 cells [2]: 0.2 nM | percent of IL-1β-induced proliferation of WI-38 human lung fibroblasts abolished [2]: 100% | IC50, IL-1-induced PGE2 synthesis, endothelial cells [6]: 1.2 nM | IC50, IL-1-induced vasodilation (ex vivo vasomotricity, protocol of Example 1) [6]: 10.8 nM | fold potency against API-101, IL-1-induced vasodilation (ex vivo) [6]: 100 fold

[dR][dW][dT][dP][dE][dL] [API-101.128]
Emax (%), IL-1β-induced TF-1 proliferation [4]: 100% | IC50, IL-1β-induced TF-1 proliferation [4]: 3 nM

[dA][dP][dR][dY][dT][dV][dE][dL][dA] [API-101]
IC50, IL-1-induced PGE2 synthesis, WI-38 cells [2]: 790 nM | IC50, effect of IL-1β (10 ng/ml) on proliferation of A549 carcinoma cells, 3H-thymidine [2]: 1000 nM | percent of IL-1β-induced proliferation of WI-38 human lung fibroblasts abolished [2]: 65% | IC50, IL-1-induced PGE2 synthesis, endothelial cells [6]: 220 nM | IC50, IL-1-induced PGE2 synthesis, microvascular endothelial cells [6]: 1000 nM | IC50, IL-1β-induced vasodilation of piglet pial vessels (ex vivo) [6]: 182 nM

[dK][dY][dT][dP][dE][dL][dA] [API-101.114]
Emax (%), IL-1β-induced PGE2 synthesis in endothelial cells (porcine) [1]: 50% | IC50, IL-1β-induced PGE2 synthesis in endothelial cells (porcine) [1]: 0.002 nM

[dR][dY][dT][dP][dE][dL] [API-101.113]
Emax (%), IL-1β-induced PGE2 synthesis in endothelial cells (porcine) [1]: 80% | IC50, IL-1β-induced PGE2 synthesis in endothelial cells (porcine) [1]: 0.0074 nM

[dR][dY][dT][dV][dQ][dL][dA] [API-101.103]
IC50, IL-1-induced PGE2 synthesis, human WI-38 cells [2]: 0.05 pM
